# Assay: yeast display, Sf9 membrane polyspecificity reagent, FACS + sequencing; frameworks hold sequencing errors
# Procedure, shortened: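 Galactose induction of a Saccharomyces cerevisiae BJ5465 synthetic nanobody display library ran 36–48 hours. The cells were then stained for 1 hour at 4 °C with 10% biotinylated, detergent-solubilized Sf9 membrane reagent, pulled down on streptavidin microbeads and FACS-sorted into low and high (top ~1%) gates on expression and reagent-binding fluorescence. Labels for polyreactivity follow the gate of origin.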
row,Sequence,polyreactivity (PSR sort gate)
1,QVQLVESGGGLVQAGGSLRLSCAASGFIFVYNAMGWYRPAPGKERELVAAINGSGDSTYYADSVKGRFTISRDNAKNTVYLQMNSLKPEDTAVYYCAARYKVPLSRYILVLYDYWGQGTQVTVSS,low polyreactivity
2,QVQLVESGGGLVQAGGSLRLSCAASGFIFVYNAMGWYRQAPGKEREFVASITWSGGRTYYADSVKGRFTISRDNAKNTVYLLMNILKPEDTAVYYCATKYPNSQGRRYDYWGKGTQVTVSS,low polyreactivity
3,QVQLVESGGGLVQAGGSLRLSCAASGFIFVYNDMGWYRQAPGKERELVAAISSSGGSTYYADSVKGRFTISRDNAKNTVYLKMNSLKAEDTAVYYCAKTGWNLDYSYSTDGYDYWGQGTLVTVSS,high polyreactivity
4,QVQLVESGGGLVQAGGSLRLSCAASGFIFVYYAMGWYRQAPGKERELVAAINQSGGRTYYADSVKGRFTISRDNAKNTVYLQMNSLKPEDTAVYYCAAESWDLYRYGQKHEYWGQGTQVTVSS,low polyreactivity
5,QVQLVESGGGLVQAGGSLRLSCAASGFIFVYYAMGWYRQAPGKERELVAAISSDGSTNYADSVKGRFTISRDNAKNTVYLQMNSLKPEDTAVYYCNARYVASPSGKRRLIDVDYWGQGTQVTVSS,low polyreactivity
6,QVQLVESGGGLVQAGGSLRLSCAASGFIFVYYGMGWYRQAPGKERELVAAISRSGGSTYYADSVKGRFTISRDNAKNTVYLQMNSLKPEDTAVYYCAARPDRSSQFDSWGQGTQVTVSS,high polyreactivity
7,QVQLVESGGGLVQAGGSLRLSCAASGFIFVYYGMVWYRQAPGKERELVAAISRSGGSTYYADSVKGRFTISRDNAKNTVYLQMNSLKPEDTAVYYCNVVRWYYHPPLTGSRFDYWGHGTQVTVSS,high polyreactivity
8,QVQLVESGGGLVQAGGSLRLSCAASGFIFWFNAMGWYRQAPGKERELVATISWSDTSTYYADSVKGRFTISRDNAKNTVYLQMNSLKPEDTAVYYCATDGRETWLPEYYWGQGTQVTVSS,low polyreactivity
9,QVQLVESGGGLVQAGGSLRLSCAASGFIFWKYAMGWYRQAPGKEREFVAAINWRGDRTYYADSVKGRFTISRDNAKNTVYLQMNSLKPEDTAVYYCAAVVGYYHRRFDYWGQGTQVTVSS,high polyreactivity
10,QVQLVESGGGLVQAGGSLRLSCAASGFIFWPYAMGWYRQAPGKERELVAAITTGGSTNYADSVKGRFTISRDNAKNTVYLQMNSLKPEDTAVYYCAKGYYFGYYEFDYWGQGTQVTVSS,high polyreactivity
11,QVQLVESGGGLVQAGGSLRLSCAASGFIFWQYAMGWYRQAPGKERELVAAISGRGGRTYYADSVKGRFTISRDNAKNTVYLQMNSLKPEDTAVYYCNKVGPLVGGVKYYYWGQGTQVTVSS,high polyreactivity
12,QVQLVESGGGLVQAGGSLRLSCAASGFIFWQYTMAWYRQAPGKERELVAAISFSGGRTYYADSVKGRFTISRDNAKNTVYLQMNSLKPEDTAVYYCAASAVPRQKGFYYWGQGTQVTVSS,high polyreactivity
13,QVQLVESGGGLVQAGGSLRLSCAASGFIFWRYAMGWYRQAPGKERELVAAISSGGNTKYADSVKGRFTISRDNAKNTVYLQMNSLKPEDTAVYYCAVLGKYLWSATNRFPGSYDSWGQGTQVTVSS,high polyreactivity
14,QVQLVESGGGLVQAGGSLRLSCAASGFIFWSYAMGWYRQAPGKERELVAAISWSGGRTYYADSVKGRFTISRDNAKNTVYLQMNSLKPEDTAVYYCAAVKRYSSQYPALDYWGQGTQVTVSS,high polyreactivity
15,QVQLVESGGGLVQAGGSLRLSCAASGFIFWYYAMGWYRQAPGKERELVAAISARDGSTYYADSVKGRFTISRDNAKNTVYLQMNSLKPEDTAVYYCNAVQRYPKFRMDYWGQGTQVTVSS,low polyreactivity
16,QVQLVESGGGLVQAGGSLRLSCAASGFIFYAYAMGWSRQAPGKERELVAAISGSGGSTYYADSVKGRFTISRDNAKNTVYLQMNSLKPEDTAVYYCAARSRVSNRSYYYWGQGTQVTVSS,high polyreactivity
17,QVQLVESGGGLVQAGGSLRLSCAASGFIFYDYDMGWYRQAPGKERELVAAITYSGGSTYYADSVKGRFTISRDNAKNTVYLQMNSLKPEDTAVYYCAAVKSRYAEAVDYYYWGLGTQVTVSS,low polyreactivity
18,QVQLVESGGGLVQAGGSLRLSCAASGFIFYDYMGWYRQAPGKERELVAVISYSGSSTYYADSVKGRFTISRDNAKNTVYLQMNSLKPEDTAVYYCAARNVNGWDYDYWGQGTQVTVSS,low polyreactivity
19,QVQLVESGGGLVQAGGSLRLSCAASGFIFYGYAMGWYIQAPGKERELVATISRRGGSTYYADSVKGRFTISRDNAKNTVYLQMNSLKPEDSAVYYCAKRRGTQEPTYVPTRSNGFDYWGHGTQVTVSS,low polyreactivity
20,QVQLVESGGGLVQAGGSLRLSCAASGFIFYHYAMGWYRQAPGKERELVAAISRRTGSTYYADSVKGRFTISRDNAKNTDYLQMNSLKPEDTSVYYCAADAYFIYSRYWYDYWGQGTQVTVSS,high polyreactivity

row,Sequence,polyreactivity (PSR sort gate)
1,QVQLVESGGGLVQAGGSLRLSCAASGFIFYINAMGWYRQAPGKERELVAAISTSGGSTYYADSVKGRFTISRDNAKNTVYLQMNSLKPEDTAVYYCAAEGSYWYYSYDYWGQGTQVTVSS,high polyreactivity
2,QVQLVESGGGLVQAGGSLRLSCAASGFIFYIYAMGWYRQAPGKERELVAAISRSSARTYYADSVKGRFTISRYNAKNTVYLQMISLKPEDTAVYDCAARYSGQWYRGPQYGYWGQGTQVTVSS,high polyreactivity
3,QVQLVESGGGLVQAGGSLRLSCAASGFIFYKNAMGWYRKAPGKERELVAAISSRGGSTSYADSVKGRFTISRDNAKNTVYLQMNSLKREDTAVYYCAAYPDYSYYYWGQGTQVTVSS,high polyreactivity
4,QVQLVESGGGLVQAGGSLRLSCAASGFIFYKNTMGWYRQAPGKERELVAAITDGDHTNYADSVKGRFTISRDYAKNTVYLQMNSLKPEDTAVYYCAADYAWNYAFGYWGQGTQVTVSS,low polyreactivity
5,QVQLVESGGGLVQAGGSLRLSCAASGFIFYKYAMGWYRQAPGKERELVAAITWRGGRTNYADSVKGRFTISRDYAKNTVYLQMNSLKPEDTAVYYCAADPWSSSYYYSYEYWGQGTQVTVSS,high polyreactivity
6,QVQLVESGGGLVQAGGSLRLSCAASGFIFYLYAMGWYRPAPGKERELVAAISRRGGSTYYADSVKGRFTISRDNAKNTVYLQMNSLKPEDTAVYYCAAYGDDGRDYWGQGTQVTVSS,high polyreactivity
7,QVQLVESGGGLVQAGGSLRLSCAASGFIFYNYAMGWYRQAPGKERELVADINSTGITYYADSVKGRFTISRDNAKNTVYLQMNSLKPEDTAVYYCAKDILTSSYRAYSPFEYGYWGQGTQVTVSS,low polyreactivity
8,QVQLVESGGGLVQAGGSLRLSCAASGFIFYQYAMGWYRQAPGKERELVAVINKSGGRTYYADSVKGRFTISRDNAKNTVYLQMNSLKPEDPAVYYCNAVSKLAVNLDYWGQGTQVTVSS,high polyreactivity
9,QVQLVESGGGLVQAGGSLRLSCAASGFIFYQYTMGWYRQAPGKERELVAAISSGGSTYYADSVKGRFTISRDNAKNTVYLQMNSLKPEDTAVYYCAAVAYGNWYRYYYWGQGTQVTVSS,high polyreactivity
10,QVQLVESGGGLVQAGGSLRLSCAASGFIFYRNTKGWYRQAPGKEREFVAAIRWRGGSTYYADSVKGRFTISRDNAKNTVYLQMNSLNPEDTAVYYCNAPYKQDYDYWGQGTQVTVSS,high polyreactivity
11,QVQLVESGGGLVQAGGSLRLSCAASGFIFYRNTMGWYRQAPGKEREFVAAIRWRGGSTYYADPVKGRFTISRDNAKNTVYLQMNSLKPEDTAVYYCAADTRPGYSGFEYWGQGTQVTVSS,high polyreactivity
12,QVQLVESGGGLVQAGGSLRLSCAASGFIFYRNVMGWYRQAPGKERELVAAISGSGGRTYYADSVKGRFTISRDNAKNTVYLQMNSLKPEDTAVYYCAADASLEGDYWGQGTQVTVSS,high polyreactivity
13,QVQLVESGGGLVQAGGSLRLSCAASGFIFYRYAMGCYRQAPGTEREFVAAISFRDGITYADSVKGRFTISRDNAKNTVYLQMNTLKPEDTAVYYCNAALSQLRRGGLAMDYWGQGTQVTVSS,low polyreactivity
14,QVQLVESGGGLVQAGGSLRLSCAASGFIFYRYAMGWYRPAPGKVRELVAAINWSGGGTYYADSVKGRFTISRDHAKNTVYLQKNSRKPEETAVYYCAAGRSFRGSYWYEYCGQGTQVTVSS,high polyreactivity
15,QVQLVESGGGLVQAGGSLRLSCAASGFIFYRYAMGWYRQAPGKEREFVAAISRSGGSTYYADSVKGRFTISRDNAKNTVYLQKNSLKPEDTAVYYCNTYQHGYYVAEYDYWGQGTQVTVSS,high polyreactivity
16,QVQLVESGGGLVQAGGSLRLSCAASGFIFYRYAMGWYRQAPGKERELVAAIRGGGSTYYADSVKGRFTISRDNAKTTVYLQMNSLKPEDTAVYYCNAVYGVRPNRYHYDYWGQGTQVTVSS,low polyreactivity
17,QVQLVESGGGLVQAGGSLRLSCAASGFIFYRYAMGWYRQAPGKERELVSAISYRGGSTYYADSVKGRFTISRDNAKNTVYLQMNSLKPEDTAVYYCAASLRYYGLEMDYWGQGTQVTVSS,high polyreactivity
18,QVQLVESGGGLVQAGGSLRLSCAASGFIFYRYAMGWYRQAPGKESELVAAISWGGGSTTYYADSVKGRFTISRDNAKNTVYLQMNSLKPEDTAVYYCAAYIVKGYGSEYYYWGQGTQVTVSS,low polyreactivity
19,QVQLVESGGGLVQAGGSLRLSCAASGFIFYRYAMGWYRQAPGNERELVAAISRSGGSTYYADSVKGRFTISRDNAKNTVYLQMNSLKPEDTAVYYCATPGQRKLYLVNYLGQGTQVTVSS,low polyreactivity
20,QVQLVESGGGLVQAGGSLRLSCAASGFIFYRYAMVWYRQAPGKEREFVARISANGGRTYYADSVKGRFTISRDNAKNTVYLQMNSLKPEDTAVYYCNAGRYATPYNYWGQGTQVTVSS,high polyreactivity

# — the nanobody polyreactivity screen of Harvey et al. (2022)
